Test results from IntAct's records for PubMed 16229834.

B1: PRKC apoptosis WT1 regulator protein (Rattus norvegicus (Rat)), Q62627 (parent)
chain: MATGGYRSSGSTTDFLEEWKAKREKMRAKQNPVGPGSSGGDPAAKSPAGPLAQTTAAGTSELNHGPAGAAAPAAPGPGALNCAHGSSALPRGAPGSRRPEDECPIAAGAAGAPASRGDEEEPDSAPEKGRSSGPSARKGKGQIEKRKLREKRRSTGVVNIPAAECLDEYEDDEAGQKERKREDAITQQNTIQNEAASLPDPGTSYLPQDPSRTVPGRYKSTISAPEEEILNRYPRTDRSGFSRHNRDTSAPANFASSSTLEKRIEDLEKEVLRERQENLRLTRLMQDKEEMIGKLKEEIDLLNRDLDDMEDENEQLKQENKTLLKVVGQLTR
partner: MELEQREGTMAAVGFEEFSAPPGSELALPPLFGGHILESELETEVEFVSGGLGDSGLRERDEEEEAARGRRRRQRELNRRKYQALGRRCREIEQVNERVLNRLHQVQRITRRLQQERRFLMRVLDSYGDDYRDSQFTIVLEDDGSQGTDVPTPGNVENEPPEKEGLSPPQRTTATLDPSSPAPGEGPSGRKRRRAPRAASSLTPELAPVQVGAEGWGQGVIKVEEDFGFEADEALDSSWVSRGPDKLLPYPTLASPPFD

Variants of: B1
Settings: with tfpt_rat Tfpt

Variant | effect of a mutation on the interaction
MATGGYRSSGSTTDFLEEWKAKREKMRAKQNPVGPGSSGGDPAAKSPAGPLAQTTAAGTSELNHGPAGAAAPAAPGPGALNCAHGSSALPRGAPGSRRPEDECPIAAGAAGAPASRGDEEEPDSAPEKGRSSGPSARKGKGQIEKRKLREKRRSTGVVNIPAAECLDEYEDDEAGQKERKREDAITQQNTIQNEAASLPDPGTSYLPQDPSRTVPGRYKSTISAPEEEILNRYPRTDRSGFSRHNRDTSAPANFASSSTLEKRIEDLEKEVLRERQENLRLTRLMQDKEEMIGKAKEEIDLLNRDLDDMEDENEQAKQENKTLLKVVGQATR [L295A;L316A;L330A] | disrupting interaction
